Reference: patent US20200055896

Assays:
[1] = test system: GP probe: fluorescence-quenched peptide of the region flanking the C-terminal human FGF21 cleavage site (VGPSQG)
[2] = test system: aP probe: FGF21-based peptide with D-alanine at P2 (VaPSQG)

Sequence of PREP in mouse plasma (chain, as listed by the source): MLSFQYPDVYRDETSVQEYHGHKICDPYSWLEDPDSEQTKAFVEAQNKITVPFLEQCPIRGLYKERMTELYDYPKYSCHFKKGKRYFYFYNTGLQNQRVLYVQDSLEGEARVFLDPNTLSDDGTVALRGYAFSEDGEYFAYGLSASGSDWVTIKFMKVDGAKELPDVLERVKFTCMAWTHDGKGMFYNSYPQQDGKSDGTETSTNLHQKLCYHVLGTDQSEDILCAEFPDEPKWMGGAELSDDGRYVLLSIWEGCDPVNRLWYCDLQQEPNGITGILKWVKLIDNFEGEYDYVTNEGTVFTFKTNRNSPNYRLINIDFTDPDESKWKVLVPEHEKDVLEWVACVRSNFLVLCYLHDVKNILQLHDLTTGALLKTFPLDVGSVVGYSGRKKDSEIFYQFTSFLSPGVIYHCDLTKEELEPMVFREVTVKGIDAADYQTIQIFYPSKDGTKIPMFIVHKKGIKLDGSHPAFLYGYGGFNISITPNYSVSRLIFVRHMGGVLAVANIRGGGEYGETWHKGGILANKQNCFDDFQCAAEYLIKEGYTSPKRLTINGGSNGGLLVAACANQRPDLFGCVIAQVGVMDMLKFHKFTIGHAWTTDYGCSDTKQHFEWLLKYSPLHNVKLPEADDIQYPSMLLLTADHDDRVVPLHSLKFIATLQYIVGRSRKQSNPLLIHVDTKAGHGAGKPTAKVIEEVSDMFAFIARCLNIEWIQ

Substance: PREP in mouse plasma
- cleavage of the GP probe in mouse plasma, with cpd60 and KYP-2047 [1]: PREP has a smaller but significant contribution

Substance: Human DPPII/DPP7 (3438-SE)
- cleavage of fluorescence-quenched peptide (FRET-quench assay), peptidase at 2.5 µg/ml [2]: did not exhibit an ability to cleave the aP probe

Substance: FAP in human serum
- cleavage of the aP probe in immunodepleted human serum [2]: signal is lost after FAP immunodepletion from human serum, but not in control IgG-immunodepleted serum
